Assay [1] has as its target T1, atrial inward rectifier K+ (KG) channel (Rattus norvegicus, UniProt P48548+P63251).
T1 construct: is expressed in oocytes injected with atrial RNA; expressed in transfected cells; host or cells: Xenopus laevis oocytes injected with rat atrial total or poly(A) RNA plus 5HT1A receptor cRNA
T1 sequence (P63251 1-501): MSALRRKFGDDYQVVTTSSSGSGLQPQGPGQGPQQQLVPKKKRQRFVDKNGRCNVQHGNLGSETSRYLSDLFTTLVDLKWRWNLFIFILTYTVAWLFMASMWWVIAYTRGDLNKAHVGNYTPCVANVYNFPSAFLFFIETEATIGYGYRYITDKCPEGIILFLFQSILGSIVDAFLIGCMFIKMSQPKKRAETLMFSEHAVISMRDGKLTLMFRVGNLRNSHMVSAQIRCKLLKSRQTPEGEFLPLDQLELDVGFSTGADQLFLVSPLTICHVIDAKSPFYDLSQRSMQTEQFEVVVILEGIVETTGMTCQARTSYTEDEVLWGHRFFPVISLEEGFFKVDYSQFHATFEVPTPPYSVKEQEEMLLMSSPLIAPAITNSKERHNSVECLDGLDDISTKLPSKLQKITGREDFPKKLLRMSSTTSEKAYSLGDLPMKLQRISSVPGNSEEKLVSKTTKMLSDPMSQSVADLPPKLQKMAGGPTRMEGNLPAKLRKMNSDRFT
T1 sequence (P48548 1-419): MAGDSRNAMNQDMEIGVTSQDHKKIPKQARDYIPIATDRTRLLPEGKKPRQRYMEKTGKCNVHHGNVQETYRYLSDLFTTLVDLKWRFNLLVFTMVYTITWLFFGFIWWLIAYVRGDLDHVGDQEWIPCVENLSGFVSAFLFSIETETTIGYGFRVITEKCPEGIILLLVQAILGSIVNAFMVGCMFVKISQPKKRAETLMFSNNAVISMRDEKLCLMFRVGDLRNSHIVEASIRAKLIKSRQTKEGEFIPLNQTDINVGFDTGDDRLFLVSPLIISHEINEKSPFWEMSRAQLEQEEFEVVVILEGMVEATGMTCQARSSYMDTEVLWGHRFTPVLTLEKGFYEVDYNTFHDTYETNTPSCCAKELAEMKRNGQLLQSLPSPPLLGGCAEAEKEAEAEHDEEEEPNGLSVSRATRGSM
The assay is described as follows: Two-electrode voltage clamp of the transmitter-evoked inward current (I5HT) in oocytes injected with atrial RNA + 5HT1A-R RNA. The assay is classed as cell-based.
Description: Solutions containing intermediate concentrations of K^+ were made by substituting K^+ for Na^+. Solution exchange and drug application were done by superfusing the cell placed in a 0.5 ml chamber. […] Stimulation, data acquisition, and analysis were performed using pCLAMP software (Axon Instruments, Foster City, Calif.).

In a further assay the test system is Xenopus laevis oocytes. Kind of assay: Membrane (resting) current of oocytes in normal ND96 solution, two-electrode voltage clamp. The assay is classed as cell-based. Here is the method: Preparation of RNA and oocytes. Total RNA was extracted from atria and ventricles of 19–21 day old rats of both sexes using the procedure of Chomczinski and Sacchi (1987) Anal. Biochem. 162:156–159. Poly (A) RNA was separated on an oligo-dT cellulose column (type 3, Collaborative Biochemical Products). Ventricle poly(A) RNA was fractionated by centrifugation (18 h, 30,000 g, 4° C.) on a linear 5%–25% sucrose gradient. Xenopus laevis oocytes were prepared as previously described (Dascal & Lotan (1992) in Methods in Molecular Biology, v. 13: Protocols in Molecular Neurobiology, eds. Longstaff & Revest). and injected with either 50–120 ng/oocyte poly(A) RNA, 120–200 ng/oocyte total RNA, or 35 ng/oocyte fractionated poly(A) RNA. In most cases, 5HT1A-R RNA (5–20 ng/oocyte) was co-injected with atrial or ventricle RNA. Final volume of the injected RNA solution was 50 nl. The oocytes were incubated for 3–7 days in the NDE solution (ND96 (see below) containing 1.8 Mm CaCl2 and supplemented with 2.5 Mm Na-pyruvate and 50 μg/ml gentamicin). Occasionally, either 2.5–5% heat-inactivated horse serum or 0.5 mM theophylline were added to the NDE solution. […]
(Two-electrode voltage clamp is typically applied to oocytes expressing channels or transporters.)

For the next assay, the system named is Kir3.1+2. The assay is described as follows: ACh-induced inward current (m2R activation) in oocytes coinjected with Kir3.1 and Kir3.2 cRNAs. The settings on record: 1 μM ACh, 0.5 ng each cRNA per oocyte, mean±SEM, n=5. The assay is classed as cell-based, rat Kir3.1, mouse Kir3.2. The text has this:
(§1) Plasmids and DNAS. To isolate Kir3.2 and Kir3.3 from mouse brain RNA, oligonucleotides were designed that anneal to the first assigned methionine codon and the assigned stop codon of mouse Kir3.2 and Kir3.3 (Lesage et al (1994) FEBS Lett. 353:37–42). Kir3.0-specific sequences were coupled to a 5′-end untranslated sequence from alfalfa mosaic virus (Jobling and Gehrke (1987) Nature 325:622–625) and a T7 RNA polymerase recognition site to confer an optimal translational initiation site and allow RNA synthesis […] (cRNA). At the 3′ end, a poly(A) tail was added to confer RNA stability. Total RNA from adult mouse brain (purchased from Clontech) was used as template for cDNA synthesis (Sambrook et al., supra.). PCR was conducted in a thermal cycler (Perkin-Elmer) by using Vent Polymerase (New England Biolabs), which minimizes misincorporations during the amplification step. Kir3.2 and Kir3.3 PCR-derived sequences were then inserted into the pNoTA vector (5 Prime→3 Primer, Inc.) for subsequent sequence analysis. […]
(§2) Electrophysiology. Whole-cell currents from oocytes were measured by using an Axoclamp 2A or Geneclamp 500 amplifier (Axon Instruments, Foster City, Calif.) in the two-electrode, voltage-clamp configuration. […]

Another assay relates to Kir3.2. The assay is described as follows: ACh-induced inward current (m2R activation) in oocytes injected with Kir3.2 cRNA. The assay is classed as cell-based, mouse. The settings on record: 1 μM ACh, 1 ng cRNA, n=7.
Excerpt: as §1, §2

Another assay concerns Kir3.1. Kind of assay: ACh-induced inward current (m2R activation) in oocytes injected with Kir3.1 cRNA. The class given is cell-based, rat. The settings on record: 1 μM ACh, 1 ng cRNA, n=5.
Excerpt: as §1, §2

Assay [2] deals with constitutively active inward rectifier K+ channel(s) (IhK). Kind of assay: Two-electrode voltage clamp of the high-K+-evoked inward current (IhK) in oocytes. The assay is classed as cell-based, Xenopus laevis. Here is the method:
Preparation of RNA and oocytes. Total RNA was extracted from atria and ventricles of 19–21 day old rats of both sexes using the procedure of Chomczinski and Sacchi (1987) Anal. Biochem. 162:156–159. Poly (A) RNA was separated on an oligo-dT cellulose column (type 3, Collaborative Biochemical Products). Ventricle poly(A) RNA was fractionated by centrifugation (18 h, 30,000 g, 4° C.) on a linear 5%–25% sucrose gradient. Xenopus laevis oocytes were prepared as previously described (Dascal & Lotan (1992) in Methods in Molecular Biology, v. 13: Protocols in Molecular Neurobiology, eds. Longstaff & Revest). and injected with either 50–120 ng/oocyte poly(A) RNA, 120–200 ng/oocyte total RNA, or 35 ng/oocyte fractionated poly(A) RNA. In most cases, 5HT1A-R RNA (5–20 ng/oocyte) was co-injected with atrial or ventricle RNA. Final volume of the injected RNA solution was 50 nl. The oocytes were incubated for 3–7 days in the NDE solution (ND96 (see below) containing 1.8 Mm CaCl2 and supplemented with 2.5 Mm Na-pyruvate and 50 μg/ml gentamicin). Occasionally, either 2.5–5% heat-inactivated horse serum or 0.5 mM theophylline were added to the NDE solution. Incubation of oocytes in pertussis toxin (PTX; List Biochemicals) was done in NDE solution without the addition of pyruvate, serum or theophylline. cDNAs of 5HT1A receptor (Karschin et al. (1991) P.N.A.S. 88:5694–5698) and Gi2a (a gift from M. I. Simon, Caltech) in pBluescript were linearized, and RNA was synthesized in vitro as described (Dascal and Lotan, supra.).
Electrophysiological recordings were performed using the two electrode voltage clamp method with the Dagan 8500 amplifier (Dagan Instruments, Minneapolis) as described (Dascal et al. (1986) Mol. Brain Res. 1:201–209). The oocytes were usually kept in the ND96 solution: 96 mM NaCl/2 mM KC1/1 mM MgCl2/1 mM CaCl2/5 mM Hepes, pH=7.5. Most measurements were done in the high K^+ solution (hK): 96 mM KCl/2 mM NaCl/1 mM MgCl2/1 mM CaCl2/5 mM Hepes, pH=7.5. Solutions containing intermediate concentrations of K^+ were made by substituting K^+ for Na^+. Solution exchange and drug application were done by superfusing the cell placed in a 0.5 ml chamber. GDP-β-S (trilithium salt; Sigma) was injected by pressure (Dascal et al. supra.). Stimulation, data acquisition, and analysis were performed using pCLAMP software (Axon Instruments, Foster City, Calif.).

Assay [3] has as its target Kir3.1 (Kir3.1/KGA), inward rectifier G-protein activated potassium channel polypeptide cloned from cardiac atrium (rat) (UniProt P63251). The assay is described as follows: cell-based or functional assay.
Assay [4] has as its target Kir3.2, isolated by PCR from mouse brain RNA (mouse) (UniProt P48542). The assay is described as follows: cell-based or functional assay.
Assay [5] addresses serotonin 5HT1A receptor (5HT1A-R). Kind of assay: cell-based or functional assay.
Setting [6] is: 400–800 pmole/oocyte injected, 4 cells.
[7] abbreviates: RNA-injected oocytes without Gi2α RNA, 500 ng/ml, 20–26 h.

“Also recorded” adds a separate entry of the source.

Kir3.2, isolated by PCR from mouse brain RNA (mouse), sequence (P48542 whole entry): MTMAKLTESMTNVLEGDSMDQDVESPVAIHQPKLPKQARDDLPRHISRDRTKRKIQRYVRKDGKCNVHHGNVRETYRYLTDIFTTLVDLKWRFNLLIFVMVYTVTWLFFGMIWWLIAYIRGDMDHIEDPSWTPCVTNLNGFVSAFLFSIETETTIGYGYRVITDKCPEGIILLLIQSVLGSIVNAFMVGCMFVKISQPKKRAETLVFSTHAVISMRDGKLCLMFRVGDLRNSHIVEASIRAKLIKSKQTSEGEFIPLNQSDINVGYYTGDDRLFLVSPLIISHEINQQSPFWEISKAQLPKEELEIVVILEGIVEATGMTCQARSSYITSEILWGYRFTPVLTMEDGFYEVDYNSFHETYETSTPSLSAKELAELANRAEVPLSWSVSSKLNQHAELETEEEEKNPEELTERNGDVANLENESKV
Description for native oocytes: Electrophysiological recordings were performed using the two electrode voltage clamp method with the Dagan 8500 amplifier (Dagan Instruments, Minneapolis) as described (Dascal et al. (1986) Mol. Brain Res. 1:201–209). […]

On to `NCCc1c[nH]c2ccc(O)cc12` [5HT, serotonin], for which the EC50 in assay [1] was approximately 15 nM. Moreover, the “inward current induced by the transmitter in hK solution” value in [1] (RNA-injected oocytes of one frog, n=6) is 1102±84 nA. The “saturation of the I5HT dose-response curve” value in assay [1] (hK solution, FIG. 1C) is recorded as “about 100 nM”. Further, the “I5HT, inward current evoked by 5HT” value in [1] (oocytes injected with Atrial + 5HT1A-R RNA, -80 mV, hK solution, 5HT 100 nM to 2 μM, mean±SEM (n)) was 290 ± 43 (55) nA. For the same molecule, the “change in membrane current in ND96 bath solution” value with Xenopus laevis oocytes (RNA-injected oocytes, 4 to 5 days after injection, 10 μM ACh or 1–2 μM 5HT) is “did not cause any significant change”. The “effect of 5HT on current” value in the assay with native oocytes is “no effect”.

With `CC(=O)OCC[N+](C)(C)C` [ACh, acetylcholine], the “inward currents induced by ACh (IK,ACh)” value in the assay on Kir3.1+2 is given as −6.4±0.8 μA; in the assay with Kir3.2 it was −698±98 nA; in the assay on Kir3.1 it was −365±45 nA.

Regarding `[Ba+2]` [Ba^2+], in assay [1] (300 μM, hK solution, FIG. 3B), the “block of I5HT” value is listed as “almost completely blocks; also recorded: almost completely abolished”. Moreover, the IC50 was approximately 15 µM in assay [1] (hK solution, -80 mV, FIG. 3D, read-out: IC50 (half-inhibition concentration) for block of I5HT) and more than 3 mM in assay [2] (hK solution, -80 mV, FIG. 3D, read-out: IC50 for IhK block). In assay [2] (300 μM, hK solution), the “block of IhK” value is on record as “about 20%”. For the same molecule, the “change in resting current or conductance in normal ND96” value in the assay with Xenopus laevis oocytes (5 μM-3 mM, native or RNA-injected oocytes, holding potential -80 mV) was “did not cause any significant changes”.

As to `Nc1nc2c(ncn2[C@@H]2O[C@H](COP(=O)(O)OP(O)(O)=S)[C@@H](O)[C@H]2O)c(=O)[nH]1` [GDP-β-S], the “I5HT after injection, % of control” value in [1] (setting [6]) is listed as 4±1 % of control. In assay [2] (setting [6]), the “IhK after injection, % of control” value is recorded as 115±8 % of control.

As to G protein subunits Gβ1 and Gγ2 (Gβ1γ2), in assay [3], the inward K+ current (IK) in high-K+ solution, Kir3.1 alone with Gβ1γ2 was -104 nA and the inward K+ current (IK), Kir3.1 alone (control of the Kir3.1+3 experiment) was -481 nA. In assay [4], this molecule gave a Gβγ-induced, inwardly rectifying currents in oocytes injected with Kir3.2 cRNA alone (1 ng per oocyte) of -5.1 µA and an inward K+ current (IK) in high-K+ solution, Kir3.2 alone with Gβ1γ2 of -305 nA.

Regarding “Gi2α, PTX-sensitive α subunit of a G-protein”, the PTX inhibition of I5HT in oocytes injected with atrial RNA plus cRNAs encoding 5HT1A-R and Gi2α in [5] is 50%.

In assay [3], “Kir3.2, isolated by PCR from mouse brain RNA (from UniProt P48542 1-425)” displayed a fold increase of IK of Kir3.1+2 over Kir3.1 alone (with Gβ1γ2) of 40 fold, a fold increase of IK of Kir3.1+2 over Kir3.2 alone (with Gβ1γ2) of 14 fold, a fold increase of the ACh-induced current of Kir3.1+2 over Kir3.1 alone of 17 fold and a fold increase of the ACh-induced current of Kir3.1+2 over Kir3.2 alone of 9 fold. In [3], this molecule gave a fold increase of the major open-time component of Kir3.1+2 against Kir3.2 alone of 7 fold; an inward K+ current (IK) in high-K+ solution, Kir3.1+2 coexpressed with Gβ1γ2 of -4.3 µA; an inward currents induced by ACh (IK,ACh), Kir3.1+2 coexpressed with m2R, 1 µM ACh of -6.4 µA; a major component of single-channel open-time duration, Kir3.1+2 of 3.5 ms. Moreover, the time constant of the slower activation component at -80 mV, Kir3.1+2 coexpressed in [3] is 213 ms.

In the case of “Kir3.3, isolated by PCR from mouse brain RNA (from UniProt P48543 1-393)”, in assay [3], the fold increase of IK of Kir3.1+3 over Kir3.1 alone is 7 fold; the inward K+ current (IK), Kir3.1 and Kir3.3 coexpressed (Kir3.1+3) was -3.4 µA. In assay [4], this molecule came in with a Gβγ-induced, inwardly rectifying currents in oocytes coinjected with Kir3.2 and Kir3.3 cRNAs (0.5 ng each per oocyte) of -129 nA.

Turning to pertussis toxin [PTX], the “effect of treatment on I5HT” value in assay [1] (setting [7]) is “not affected”. Further, the “inhibition of I5HT” value in assay [1] (oocytes injected with atrial RNA plus cRNAs encoding 5HT1A-R and Gi2α, P<0.01) was “about 50%”. Besides, the “effect of treatment on IhK” value in [2] (setting [7]) is reported as “not affected”. Further, the “effect on IhK” value in assay [2] (oocytes injected with atrial RNA plus cRNAs encoding 5HT1A-R and Gi2α) is listed as “unaffected”.

The term EC50 denotes the concentration needed to bring the measured effect to its halfway point.

Source of the values: patent US7138248B2, “Method of inhibiting inward rectifier, G-protein activated, mammalian, potassium channels and uses thereof” (California Institute of Technology, priority 1993, dated 2006).
